How the values were obtained:
Assay in all cases: Native-PAGE of mixed CL and Im proteins, 30 min at room temperature
Im2 protein = target: T1, Im2 protein (Escherichia coli, UniProt P04482 1-86)
T1 construct: Expressed from pET23a in E. coli BL21(DE3) and purified on nickel beads; a tag is not described; also called immunity 2
T1 sequence: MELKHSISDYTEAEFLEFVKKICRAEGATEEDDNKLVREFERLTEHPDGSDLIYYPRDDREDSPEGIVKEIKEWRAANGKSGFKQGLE

Im7 protein = target: T2, Im7 protein (Escherichia coli, UniProt Q03708 1-87)
T2 construct: Expressed from pET23a in E. coli BL21(DE3) and purified on nickel beads; a tag is not described
T2 sequence: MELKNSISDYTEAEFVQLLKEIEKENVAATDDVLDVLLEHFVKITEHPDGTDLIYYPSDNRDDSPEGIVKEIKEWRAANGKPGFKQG

Im8 protein = target: T3, Im8 protein (Escherichia coli, UniProt P09881 1-85)
T3 construct: Expressed from pET23a in E. coli BL21(DE3) and purified on nickel beads; a tag is not described
T3 sequence: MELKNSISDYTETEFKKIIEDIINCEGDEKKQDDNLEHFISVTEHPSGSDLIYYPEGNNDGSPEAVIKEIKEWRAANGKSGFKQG

Im9 protein = target: T4, Im9 protein (Escherichia coli, UniProt P13479 1-86)
T4 construct: Expressed from pET23a in E. coli BL21(DE3) and purified on nickel beads; a tag is not described
T4 sequence (P13479 whole entry): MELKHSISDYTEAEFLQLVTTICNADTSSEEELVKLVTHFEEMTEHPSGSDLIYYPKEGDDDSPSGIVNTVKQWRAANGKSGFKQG

B1: CL2 protein (other)
chain: MSKSNEPGKATGEGKPVGDKWLDDAGKDSGAPIPDRIADKLRDKEFENFDDFRETFWEEVSKDPDLSKQFKGSNKTNIQKGKAPFARKKDQVGGRERFELNHQKPIEQDGGVYDMNNIRVTTPKRNIDIEG
notes: Expressed from pET23a in E. coli BL21(DE3) and purified on nickel beads; a tag is not described
Question: Does B1 bind (Im2 protein)?
Answer: binds

B2: CL7 protein (other)
chain: MSKSNEPGKATGEGKPVNNKWLNNAGKDLGSPVPDRIANKLRDKEFESFDDFRETFWEEVSKDPELSKQFSRNNNDRMKVGKAPKTRTQDVSGKRTSFELNHQKPIEQNGGVYDMDNISVVTPKRNIDIEG
notes: as for B1
Question: Does B2 bind (Im7 protein)?
Answer: binds

B3: CL8 protein (other)
chain: MSKSNEPGKATGEGKPVGDKWLDDAGKDSGAPIPDRIADKLRDKEFENFDDFRETFWEEVSKDPELSKQFNPGNKKRLSQGLAPRARNKDTVGGRRSFELNHQKPIEQDGGVYDMDNLRITTPKRNIDIEG
notes: as for B1
Question: Does B3 bind (Im8 protein)?
Answer: binds

B4: CL9 protein (other)
chain: MSKSNEPGKATGEGKPVGDKWLDDAGKDSGAPIPDRIADKLRDKEFESFDDFRETVWEEVSKDPELSKNLNPSNKSSVSKGYSPFTPKNQQVGGRKVYELNHQKPIEQGGEVYDMDNIRVTTPKRNIDIEG
notes: as for B1
Question: Does B4 bind (Im9 protein)?
Answer: binds

From patent US20230220439A1 (HUBEL UNIVERSITY, published 2023)
